Reference: IntAct's records for PubMed 12084722

Target: apoa1_human APOA1 (UniProt P02647)
Sequence (P02647 whole entry): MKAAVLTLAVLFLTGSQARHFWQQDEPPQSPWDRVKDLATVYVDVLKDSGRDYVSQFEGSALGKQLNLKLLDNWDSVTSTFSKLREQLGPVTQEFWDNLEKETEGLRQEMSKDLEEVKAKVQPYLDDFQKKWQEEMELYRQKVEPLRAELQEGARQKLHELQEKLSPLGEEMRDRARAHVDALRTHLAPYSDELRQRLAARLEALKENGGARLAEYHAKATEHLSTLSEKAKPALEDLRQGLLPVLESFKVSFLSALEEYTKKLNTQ

| Substance | effect of a mutation on the interaction |
| --- | --- |
| Phospholipid-transporting ATPase ABCA1 (Homo sapiens), O95477 S1506L | disrupting interaction strength |
| Phospholipid-transporting ATPase ABCA1 (Homo sapiens), O95477 Q597R | disrupting interaction strength |
| Phospholipid-transporting ATPase ABCA1 (Homo sapiens), O95477 W590S | increasing interaction strength |
| Phospholipid-transporting ATPase ABCA1 (Homo sapiens), O95477 C1477R | disrupting interaction strength |
| Phospholipid-transporting ATPase ABCA1 (Homo sapiens), O95477 R587W | disrupting interaction strength |
